Experimental findings from patent US7638334B2, “Method for generating engineered cells by homologously recombining segments having increased degeneracy” (Morphotek, Inc., priority 2002, dated 2009) are described below.

In the test the test system is endogenous MMR activity. Put plainly: pCAR-OF β-galactosidase reporter assay for MMR deficiency (in situ X-gal staining). The following applies: PMS134 expressed from pEF vector in HEK293 cells. The class given is cell-based, human. An excerpt:
A method used to detect MMR deficiency in eukaryotic cells is to employ a reporter gene that has a polynucleotide repeat inserted within the coding region that disrupts its reading frame due to a frame shift. In the case where MMR is defective, the reporter gene will acquire random mutations (i.e. insertions and/or deletions) within the polynucleotide repeat yielding clones that contain a functional reporter gene. An example of the ability to alter desired genes via defective MMR comes from experiments using HEK293 cells (described above), where a mammalian expression construct containing a defective β-galactosidase gene (referred to as pCAR-OF) was transfected into 293PMS134 or 293vec cells as described above. The pCAR-OF vector consists of a β-galactosidase gene containing a 29-basepair poly-CA tract inserted at the 5′ end of its coding region, which causes the wild-type reading frame to shift out-of-frame. […] Another reporter vector called pCAR-IF contains a β-galactosidase in which a 27-bp poly-CA repeat was cloned into the same site as the pCAR-OF gene, but it is biologically active because the removal of a single repeat restores the open reading frame and produces a functional chimeric β-galactosidase polypeptide (not shown). […] Cells were scored positive if the colonies turned blue in the presence of X-gal substrate and scored negative if colonies remained white. […]

B1: PMS134: previously published dominant negative human PMS2 mismatch repair mutant (SEQ ID NO:11/12) (protein, listed as Homo sapiens)
chain: RGGSGVASMERAESSSTEPAKAIKPIDRKSVHQICSGQVVLSLSTAVKELVENSLDAGATNIDLKLKDYGVDLIEVSDNGCGVEEENFEGLTLKHHTSKIQEFADLTQVETFGFRGEALSSLCALSDVTISTCHASAKVGT
Regarding B1, the “dominant negative effect on MMR” value was “robust dominant negative effect”.
